Assays:
[1] = target: M13 bacteriophage incorporated into PEDOT nanowires (M13 bacteriophage); experiment: electrical resistance of virus-PEDOT nanowire array in PBF, 99 nM antibody
[2] = target: M13 bacteriophage incorporated into PEDOT nanowires (M13 bacteriophage); experiment: electrical resistance of virus-PEDOT nanowire array in PBF

Substance: Anti-M13 antibody (p-Ab, GE Healthcare Life Sciences)
- increase in the resistance (ΔR/R0) at 99 nM antibody [1]: 40%
- limit of detection [2]: 20 nM

— US8525237
